# According to ChEMBL document CHEMBL5649167, “The SUV4-20 inhibitor A-196 verifies a role for epigenetics in genomic integrity” (Nat Chem Biol, 2017):
# Legend:
# [1] = system: Clc1cc2c(NC3CCCC3)nnc(-c3ccncc3)c2cc1Cl; conditions: Homo sapiens; time 2.0 hrs
# [2] = system: Clc1cc2c(NC3CCCC3)nnc(-c3ccncc3)c2cc1Cl; conditions: Homo sapiens; time 2.0 hrs; remark: listed apart in the source
# Chain of Histone-lysine N-methyltransferase KMT5B (Homo sapiens), Q4FZB7 (Q4FZB7 whole entry): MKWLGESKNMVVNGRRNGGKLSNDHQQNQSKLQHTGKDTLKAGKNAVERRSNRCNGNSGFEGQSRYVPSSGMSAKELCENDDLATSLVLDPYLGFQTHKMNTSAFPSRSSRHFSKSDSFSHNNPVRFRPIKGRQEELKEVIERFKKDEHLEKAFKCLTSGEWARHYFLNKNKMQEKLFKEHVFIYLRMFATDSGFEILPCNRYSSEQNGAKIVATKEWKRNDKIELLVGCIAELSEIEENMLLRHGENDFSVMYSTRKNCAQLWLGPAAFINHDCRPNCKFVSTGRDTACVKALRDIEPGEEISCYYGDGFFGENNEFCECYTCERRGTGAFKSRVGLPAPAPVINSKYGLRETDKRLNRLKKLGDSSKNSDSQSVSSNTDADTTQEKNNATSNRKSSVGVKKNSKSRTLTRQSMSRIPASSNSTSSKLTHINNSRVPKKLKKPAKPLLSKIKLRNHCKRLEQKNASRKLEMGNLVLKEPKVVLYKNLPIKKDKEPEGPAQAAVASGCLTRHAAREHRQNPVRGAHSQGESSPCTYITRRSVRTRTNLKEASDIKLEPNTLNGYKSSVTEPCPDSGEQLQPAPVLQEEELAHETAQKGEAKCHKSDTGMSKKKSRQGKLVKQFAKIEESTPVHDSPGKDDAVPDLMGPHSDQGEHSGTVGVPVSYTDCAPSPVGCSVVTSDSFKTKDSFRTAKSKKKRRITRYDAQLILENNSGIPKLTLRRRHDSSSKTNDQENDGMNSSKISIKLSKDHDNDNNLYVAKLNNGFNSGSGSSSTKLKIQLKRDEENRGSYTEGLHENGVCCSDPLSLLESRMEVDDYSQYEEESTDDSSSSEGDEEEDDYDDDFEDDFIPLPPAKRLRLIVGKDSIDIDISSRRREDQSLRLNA
substance,measurement,setting,value
"Histone-lysine N-methyltransferase KMT5B (Homo sapiens), Q4FZB7",Km,[1],0.0748 µM
same,Km,[2],0.0278 µM
